Residue numbers refer to the chain shown, from its start. Names may count otherwise.
B1: 20A7 (antibody, V domains shown)
VH: DVQLVESGGGLVKPGGSLRLSCVASGFTFSNSEMHWVRQAPGKGLEWVSVISESGETTHYADSVKGRFTISRDNANNLLLLQMNSLRADDTAVYYCTRYNWNNRVYALDSWGQGVVVTVSS
VL: EIVLTQSPATLSLSPGEGASLSCRASQTVIGSLAWYQQKPGQAPRLLIYGASSRATGIPDRFSGSGSGTDFTLTISSLEPEDFAVYYCQQYGNWPLTFGPGTRLDIR
B2: 20A7-VH E33V (antibody, V domains shown)
VH: B1 VH with E33V
VL: B1 VL
B3: 25F9 (antibody, V domains shown)
VH: EVQLVESGGGLVQPGGSLRLSCSASGFRFSDYWINWVRQAPGKGLEWVGFIKTKADFGTPAYAESVKGRFSISRDDSKNTVYLQMNSLKTEDTAVYYCTRDRGILEWLIIEAGWFDVWGPGVLVTVSS
VL: QSVLTQPPSASGAPGQRVTISCTGSSSNIGAGHYVSWYQQLPGTAPKLLIHENDKRPSGVSDRFSGSRSGASASLTITGLQSGDEADYYCSVWDRSLNTLFGGGTRVTVL
B4: 21B6 (antibody, V domains shown)
VH: EVRLVESGGGLVQPGGSLRLSCAASGFTFSDYYISWVRQAPGRGPEWVGFIRNVLYRGTTEYAPSVKGRFIISRDDSRAIASLQMNGLKADDTAVYYCALGASGTDRDWFDVWGPGVLVTVSS
VL: DIQMTQSPSSLSASVGDTVTITCRASQDISNSLAWYQQKPGKAPKALIYYASNLESGVPSRFSGSGSGTDFTLTISSLQPEDFATYYCQQHNNYPFTFGPGTKVDIK

Tests used:
[1] = molecular target: T1, SARS-CoV-2 Omicron BA.1 RBD (SARS-CoV-2, Omicron BA.1, strain); test: cell-based or functional assay
[2] = molecular target: SARS-CoV-2 Delta variant RBD (SARS-CoV-2, Delta (B.1.617.2), strain); test: BLI
[3] = molecular target: SARS-CoV-2 Beta variant RBD (SARS-CoV-2, Beta (B.1.351), strain); test: BLI
[4] = molecular target: T2, SARS-CoV-2 receptor binding domain (RBD), wild type (SARS-CoV-2, wild type (Wuhan), UniProt P0DTC2); test: BLI
[5] = molecular target: T1, SARS-CoV-2 Omicron BA.1 RBD; test: BLI
[6] = molecular target: T2, SARS-CoV-2 receptor binding domain …; test: cell-based or functional assay

Binder | IC50 of neutralization of authentic SARS-CoV-2 BA.1 [1] | Kd [2] | Kd [3] | Kd [4] | Kd [5] | fold reduction of binding against 20A7 [4] | IC50 of neutralization of authentic SARS-CoV-2 D614G [6]
B1 | 6 ng/mL | < 0.666 pM | < 0.666 pM | < 0.666 pM | < 0.666 pM | – | –
B2 | – | – | – | – | – | ~300 fold | –
B3 | 42 ng/mL | < 0.666 pM | < 0.666 pM | < 0.666 pM | < 0.666 pM | – | 6 ng/mL
B4 | 11 ng/mL | < 0.666 pM | < 0.666 pM | < 0.666 pM | < 0.666 pM | – | –

From article doi:10.1101/2023.01.19.524784 (bioRxiv, 2023)
